According to the supplement of paper PMC12636428:

Tested on: Saccharomyces cerevisiae
Experiment: transcriptional activation domain activity (GFP:mCherry ratio, weighted mean of sorted bins, harmonized to initial dataset scale) (arbitrary fluorescence ratio units); higher = stronger transcriptional activation
Conditions: beta-estradiol 1 µM; induction time 4 h
Experimental: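 53-aa protein tiles (fungal proteins plus yeast TF control tiles) fused C-terminally to a DBD-estrogen-binding domain-mCherry synthetic TF, integrated in S. cerevisiae (URA3 locus) with a GFP reporter. Cells were induced with 1 uM beta-estradiol for 4 h at 30 C, FACS-sorted into 8 bins by GFP:mCherry ratio and barcodes sequenced. Activity is the read-weighted mean bin fluorescence (GFP:mCherry), averaged over barcodes (median 12); tiles under 50 reads were discarded. New active-learning values were harmonized by linear fit onto the scale of the initial (Hummel et al.) dataset. The assay saturates at low and high signal.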

Going from “SSIVYLHPPLLHCLFLFPLLLLRLLAILAFSFLYLINLVLGTLGSCFSFFFRD” to “KSKKRRRDDGSSDTADSDGNRGRSTGKKRQRSRRGSDDNDSEADARKRSRKRR”, the “transcriptional activation domain activity” value falls from 34600 to 23600.

Compared with “MALFLGCIDFGQYKLNLEKYSGWLTIPLVPSEQALFYHTVKIIYSIFLHPLRN”, “MELYGTHGVFYYYFFVIGFFLDYHSFLSPLLSLLMRIEKDVSGIFFFVFLFFC” is lower in “transcriptional activation domain activity” value: 66500 for the first, 63700 for the second.

Compared with “PTRRSFSSAWFLCIRYFSLCSNIVVIVDTFGTFSYNVPMYGLSKKLLMWLACV”, “AAAAGVPIASDESETEVEEEGSSSADIGQAATTGRGRSPPKQQQQQQSVAAVS” is lower in “transcriptional activation domain activity” value: 47900 for the first, 38500 for the second.

Going from “LKHGMMRLDFLCKFSMYGGIERDNQFVKKATGVAFPCVFVLRCLKRPVLTESE” to “SLLPSPPQAVIFLVLFFSFLLLALFGYLFYFPLIPFLKTSIPIFSTYYSFFFM”, the “transcriptional activation domain activity” value falls from 55100 to 24300.

First: KPDLYLDILKIIAYSLDDVKFRACQVLFHYYFVSLGHVVVAEALPKLGVTVEI
Second: FLVAFLLMCLHSPDKSTVAMLILGVFSLLLLLFWAASLSFDGQPSKYGWLLRH
The “transcriptional activation domain activity” value of the first is lower: 36400 for the first, 50200 for the second.

Compared with “ASTKGRADVRGRSGKAAPQKGRGKARVGSKRAPHFRGGGIAFGPRPRDFSTEL”, “DAAKPAQGLFGGALAAGKSGETPKPAGSLFGAPSSSTKTGEEAKPAGGLFGAG” is lower in “transcriptional activation domain activity” value: 28300 for the first, 26100 for the second.

Going from “EAEQEVQQKPAKGKKALAAAKSSAEDAEPEAAPAPKKSALKDGEASAAAPAPS” to “SGKQGGRKSGSPHGRRPAIQGARRKGKQSSRKPTGKQTKQSPGKSGARKAFGK”, the “transcriptional activation domain activity” value rises from 21800 to 42400.

Going from “GKVFILLRIWFFRQRSLSLYRTLLSSYLVERSPLFTSTMGVFGLDRKLLVKTA” to “ADADAGKEAEGGAGGKRCKGCGKGEGEGEEGGLRRCARCKVVVYCGRECQKRD”, the “transcriptional activation domain activity” value falls from 62500 to 36700.

Compared with “GGETAAPPAEPAPAPAAEPEEEEEPVKGKGKGGKGGKKGGKGGKKAKKEEVPA”, “AAKSKGRTSRASRTRGEKSDSKEEKKRTSSLKEKRSSSEEKKSRSSKSAGKEK” is higher in “transcriptional activation domain activity” value: 23600 for the first, 38300 for the second.

Compared with “SSSSKKQNQSADGERKKPKKTDGAEKGESVRRKSDSGGKSVKSEEKTTKGIQK”, “DSNILAILPAVVYLQHSCYCLYFFYLYCFCLFLMSIDVAILYCLLYKIIPLFH” is higher in “transcriptional activation domain activity” value: 28800 for the first, 43400 for the second.

Going from “TPTAQYQQGYHFRHLRYVMCLSVAVLIVGAVSLTIPLPISARIASILRFWEHD” to “DPIRYLSTMDLGYCVGDKIIGSVLCYKQPIVLLILMYFTDQILFFLDTYLWYI”, the “transcriptional activation domain activity” value falls from 44200 to 40600.

First: KWHSTMQSAAARGTRVLHDKRRSRVKREGGEGGGGKEERRRQRRRTCATCTRL
Second: MRSTGLESIKGLGTGYVGICGFIYLCISTYMHFLIPNIPNWIFFLLFLYPFLS
The “transcriptional activation domain activity” value of the first is lower: 29700 for the first, 59300 for the second.

First: GNAVYMSMDLPDTTFALSKLLNYIEWNRAKLFSFAFFVCVWTYFRHYLNLVIL
Second: FLDVSTSYDIGNPPSISDDLLDLSIFTAQNFQSPSIDFRRVKLMHDFLDVSRF
The “transcriptional activation domain activity” value of the first is lower: 46000 for the first, 125000 for the second.

Compared with “AMERLRAAEKTAKEKRLCLYANAPAANSSSKGTTAATSRGGAFEATVVRVWSG”, “KKRRKKAKEGAERGKKKRKHTDDGAGVADGVDQRDSQRESDESSADEDGNSGK” is lower in “transcriptional activation domain activity” value: 61100 for the first, 38300 for the second.

First: CGSQSPALLYPYYQIDTIVPCIRDLESYYKSAGFPTTTLIWPLFLHLMILFVV
Second: WYWLATTMYFLYGESVIYYFKHVVLVDKVLLPLATHHRFISFMLYIIGFVFFV
The “transcriptional activation domain activity” value of the first is higher: 75400 for the first, 60400 for the second.

Going from “NLYGNDEEVLFYEDNYNPKMQWSLQDNSAAINNEDARAIFNNEFDSDDDDISD” to “RALLLLSYCAFLKTTGVTDGEIVQLISTSAELKFRPWSLVRGAECVNRCITAL”, the “transcriptional activation domain activity” value falls from 86600 to 47400.

Compared with “LDIGHWMSSYNLLRRQSTKRYMIIMDLTRRFNTRTPNLLYLIQWGFVWGVSYY”, “LGLLLVVSVRIVVTLFSLFFFILLLVALGLIILIIALIVKAIIIVVYFFFFFV” is lower in “transcriptional activation domain activity” value: 57900 for the first, 20400 for the second.

First: TSPKKKGRAAAKGKKGADKENAEAKTEVEKKASEDEFKDLEPNGDSKTNGAAA
Second: GGGGDNAAAGEKNSSSSSNSHHNSSKKSGRGGRSNSESRNEGGGRSTAGGGSA
The “transcriptional activation domain activity” value of the first is lower: less than 6570 for the first, 31800 for the second.

First: MLLLLPLHMLLQRHTLPNFFTFFSIIIIFLFLFSFFFFLFFFFLLFFLLLPGG
Second: MPYKKGHFVWILVYAIAVQSGNVMKKRVGVVTLVLKMPSRKILPPWSTLVCKT
The “transcriptional activation domain activity” value of the first is higher: 76400 for the first, 47300 for the second.

First: AAAATGSKRKADDASDEEQEEGDKEGDNNKGEKQGGEPAGKKQKQTAGVKRVV
Second: WGTTFRDEGSRVRVLMRRLARMMRLGGRTPCQSDHISNVHFSAPADWQSTWGT
The “transcriptional activation domain activity” value of the first is lower: 27500 for the first, 48000 for the second.

Compared with “ASPDADGNGEVKKKYDPKDPMRPRRKKARRACYACQRAHLTCGDERPCQRCIK”, “FCVAAMIGEYGTTYYPTVTYWGELEVLGKIFWTLPLESFANSISGIIVDCYLI” is higher in “transcriptional activation domain activity” value: 43400 for the first, 63500 for the second.

Going from “QNAIELTLLCITLIASDTLLLLRVSALCADRSSGVWGISYFYIIRRLLWGVYF” to “QQQEEEEKKKEVGGEAEGYEERVINMGAKNSAPMKAGDRIIICTPGGGGWGKS”, the “transcriptional activation domain activity” value falls from 68700 to 9620.

Compared with “APIILGFSCGVCIHHLLACCIFVMIFIIRIFDPVYIPSMVLLFLCSCLSDRHG”, “PLVVDFPQAVEYFPEMALKYMMCWLSRFDLLPGERLGCRVLAAFIHLTIHRVS” is lower in “transcriptional activation domain activity” value: 69700 for the first, 57200 for the second.

Going from “GVLFCLSCLSFINLSFFLGGGCLFSFSFLFPALVWRYAFFLLVLDYRRILNIP” to “RLGQCVKRYFDSKQVTHLVNAGKYGTGVVSYLFYFMWSYREESRGANFALWCF”, the “transcriptional activation domain activity” value rises from 36900 to 79300.

Going from “LFYNQVSKLLIINCYEASYMCVIYTVGSIGNIGSRCQNLRTGSTFKTLVKYID” to “MDEDEDENENENENSKPPPPLPALPPHPHPHPHPHPHPHPQPQQPQSSSTTNE”, the “transcriptional activation domain activity” value falls from 54000 to 40800.

First: PLVVFPNFMAVVIIFGFFFMYFEDFNKEVFLHNKHHQIWVYLHFPLHLCQVAF
Second: GNATAGAGAGQAGEAKGKGKAKAKAKGKEKKGKGKAKGKANGKNNQGAAAGGA
The “transcriptional activation domain activity” value of the first is higher: 78400 for the first, 46300 for the second.

First: MGLYIFIFSFSFFLFFFFFFFFFFFVLGLVFVSMRTERLLSSQYFFFFWFFSG
Second: GDDCEVFFLFTFTFTFFFFYFFPRVLFTPFFFYILDLSLFFYCCSCFFFFSPC
The “transcriptional activation domain activity” value of the first is higher: 27800 for the first, 27100 for the second.

Compared with “MQETNGNTTAADQGSRHDVPPPRRPTRSRNGCMTCRRRKVRCDEQRPRCSHCE”, “MVLLTFSLICNSCATVLELSEHLPVPWDVFCQHMCVRFLLPLLRVAAHALTSA” is higher in “transcriptional activation domain activity” value: 8920 for the first, 43000 for the second.

Going from “GGETEGESPEAPVPGGETPSEGGETETPSEGGETEGESPETPVPGGETPSEGG” to “MVTIWDFFLGGWGWAFYIICLFFFLSFYFLSFFFFSLLSSFFFFGYSPSAVWV”, the “transcriptional activation domain activity” value rises from 16800 to 29600.

Compared with “LQSSLLHPCAFYVRLLISILIEYISLPCLTIDFFFFFIFRVTFPIFFLTFFYL”, “QEDDPMPYLSWTPTVGRNSAFVDLTEEQREELGGIEYRSLKLLLIILVCYYVG” is lower in “transcriptional activation domain activity” value: 61400 for the first, 48300 for the second.

First: TIHLVNTIQVIVLILDRFLYGIIPLFEIHTCAFFPLLISFWHVSYLLYYVIMF
Second: DLLDQMILGLLRYCEADILVPKLRLLGATDRARMELLDAYSCKVWLLLLMFVT
The “transcriptional activation domain activity” value of the first is lower: 37200 for the first, 56500 for the second.

Compared with “VCGAHCGYILGHINIFQPINWVLVQSSKVFPIDYVLFLLLVLFFFSASVVGLA”, “TGAGLFFFFHLFLCVWGIEILLVALDFPFFFFWFPYCAWAVSVRLGFGMIPKI” is higher in “transcriptional activation domain activity” value: 21400 for the first, 66900 for the second.

Compared with “QAAFRQRRANYIATLEETGWVVSILLYLHRSSLSFSAVTSLESVVLQLQDSCR”, “PGAAGGEKEKKKRQRTKNKKVDAAAPAEDAPAAAAEKLAKLEVAPADDDAAAK” is lower in “transcriptional activation domain activity” value: 53400 for the first, 25900 for the second.

Going from “MSLFFLFFFFFSSFFSFFLLLPLCSVMFMPPVLSLYGVTMGFLPPPPFFFFLF” to “LAELVPKLDDSTVQYAYVRQEYANDSESTRVKFALIIWIGQSTKVMRKARVSI”, the “transcriptional activation domain activity” value rises from 37900 to 52800.

First: SDKLHRLRWRLGSLEDVLTTFSYLKFEQYLIPIVYLLLRRHTNIIFLAAHWVL
Second: MCIICVLYVYYMYICFVCVHCICFYIFVHRFCLSVCMFFFFFFFFVCFINIIL
The “transcriptional activation domain activity” value of the first is lower: 64000 for the first, 69900 for the second.

Compared with “KANSKAKLSKKDESSDESESDSEDEKPAPKANGKQVCCAVPLAIFFIALLTKY”, “KPESKEKEEEEEETETETETETKPEAKEEPKEEPKEEVNNEKEAEDAAAAEAK” is lower in “transcriptional activation domain activity” value: 57400 for the first, 27200 for the second.

Going from “ICHYKGSLIGKHFKSLSQVMPFIIYDLVPSTVLNAWTIMGKLIVLIWHTKILN” to “DDDIAMFDSLATTQPIDIAASNQQNGEIAQLWDFNVDQFNMTPSNSSGSATIS”, the “transcriptional activation domain activity” value rises from 38600 to 91100.

Compared with “RLCEFLFFLLFFGGFLVGGLVGLGVWFGWAFVLAFSFFLALHFGVSNHLFVVF”, “MTIDVIHVTYFTFFFFIIVLIYAHLVIPYILDVELLTYFLNDAFKWNMLNMLF” is higher in “transcriptional activation domain activity” value: 29000 for the first, 50200 for the second.

First: GLGKEGESYIVAMGAVSGGIIIYRRIEGGAGLVEVVRNSTAVARTTAVMIALE
Second: MEACMSIMMIPMILRNGTVFSFFFRVMLYFTCIVSMAGWLVPGSYWLWFGLVC
The “transcriptional activation domain activity” value of the first is lower: 42400 for the first, 48100 for the second.

For “GDKTEGAEGEDGAQRRQSTRGRGRSGRGRGGRGRGGRADENKDEENHEDAGES”, the “transcriptional activation domain activity” value was 22500.
